In US20200369781A1 (published 2020):
Blank lines part the entries; values can stand above or below the binder they belong to.

Legend:
soluble human IL-6R [1] = molecular target: T1, soluble human IL-6R (human, UniProt P08887 20-357); test: BLI (Octet), in the same way as in Example 3
T1 construct: 152, 4958-4968 (1994); also called hsIL-6R; recombinant human IL-6R
T1 sequence: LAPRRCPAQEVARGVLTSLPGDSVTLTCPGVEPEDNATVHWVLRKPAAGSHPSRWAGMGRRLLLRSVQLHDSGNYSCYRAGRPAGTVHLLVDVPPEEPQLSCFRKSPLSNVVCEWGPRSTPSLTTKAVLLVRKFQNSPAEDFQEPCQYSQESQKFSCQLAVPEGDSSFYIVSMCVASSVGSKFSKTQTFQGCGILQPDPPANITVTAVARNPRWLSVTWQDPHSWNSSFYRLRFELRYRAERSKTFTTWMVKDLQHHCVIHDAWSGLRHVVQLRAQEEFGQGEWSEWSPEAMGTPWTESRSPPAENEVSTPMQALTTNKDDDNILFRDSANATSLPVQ

soluble human IL-6R [2] = molecular target: T1, soluble human IL-6R; test: BLI (Octet), in the same way as in Example 3, 30 C or 25 C
soluble human IL-6R [3] = molecular target: T1, soluble human IL-6R; test: BLI (Octet HTX), molecule captured on Protein A biosensor, hsIL-6R as analyte, 30 C
Procedure: The hsIL-6R binding evaluation of each molecule was conducted using Octet HTX (Pall ForteBio Corp.). Specifically, each molecule was allowed to bind to Biosensor/Protein A (ProA) (Pall ForteBio Corp., 18-5013), and hsIL-6R was allowed to act thereon, followed by binding evaluation at 30° C.

binding result (soluble human IL-6R [1]): binds
B1: 20A11-G1m/VK2-28-k0MT (antibody, human IgG1, kappa, V domains shown)
VH: EVQLVESGGGLVQPGGSLRLSCAASGSVFKINVMAWYRQAPGKGRELVAGIISGGSTSYADSVKGRFTISRDNAKNTLYLQMNSLRPEDTAVYYCAFITTESDYDLGRRYWGQGTLVTVSS
VL: not shown
notes: IgG antibody-like molecule with VHH 20A11 in place of VH

binding result (soluble human IL-6R [2]): no binding
B2: 20A11hu-G1m/VK2-28-k0MT (antibody, human IgG1, kappa, V domains shown)
VH: EVQLVESGGGLVQPGGSLRLSCAASGSVFKINVMAWVRQAPGKGLEWVAGIISGGSTSYADSVKGRFTISRDNAKNTLYLQMNSLRPEDTAVYYCAFITTESDYDLGRRYWGQGTLVTVSS
VL: not shown
notes: IgG antibody-like molecule with VHH 20A11hu in place of VH

binding result (soluble human IL-6R [3]): no binding
B3: IL6R90-G1m/VK2-28-k0MT (antibody, human IgG1, kappa, V domains shown)
VH: EVQLVESGGGLVQPGGSLRLSCAASGFTFDDYGMSWVRQAPGKALEWVSAISWNGNNTYYTESMKGRFTISRDNAKNTLYLQMNSLRPEDTAVYYCVKGSTAIVGVPPTYPDEYDYWGQGTLVTVSS
VL: not shown
notes: IgG antibody-like molecule with VHH IL6R90 in place of VH
